Data published in US20060019241A1, “Na+ and CI-coupled transport system for endogenous opioid peptides” (priority 2004, published 2006).
“Also recorded” adds a separate entry of the source. Ends that are not written are not given here.

Columns and labels:
[1] = tested on: deltorphin II transport system in Tat-ARPE-19 cells; assay: Inhibition of [^3H]deltorphin II uptake in Tat-ARPE-19 cells; format: cell-based, human; settings: [^3H]deltorphin II 50 nM; for competition with deltorphin for the uptake process (in words): Tat-ARPE-19 / RPE cells, compound 1 mM; for [^3H] Deltorphin II uptake / [^3H] Deltorphin II uptake (%) of control: Tat-ARPE-19 cells, 30 minutes, NaCl, inhibitor 1 mM; for [^3H] Deltorphin II uptake (%) of control: control = 100
Text: Stable transfection of ARPE-19 cells with pcDNA-Tat cDNA. The pGEM2-Tat cDNA construct contained as the insert a 295 basepair (bp) fragment encoding the first exon of HIV-1 Tat gene joined to a 145 bp pET3A transcription terminator. The entire insert (440 bp) was removed from the construct by digestion with PstI and EcoRI and ligated into the multiple cloning region of pcDNA3.1 (−) vector at PstI/EcoRI site so that the insert is downstream of the cytomegalovirus (CMV) promoter. The resultant construct was sequenced to confirm the orientation of the insert. This construct was electroporated into ARPE-19 cells and the stably transfected cell clones were isolated in the presence of Geneticin (G418). To serve as a control, empty pcDNA3.1 vector was electroporated into ARPE-19 cells in an identical manner and the clones harboring the vector were selected by G418 resistance.
Uptake measurements in control ARPE-19 cells and Tat-ARPE-19 cells. Control ARPE-19 cells and Tat-ARPE-19 cells were maintained in 75-cm^2 culture flasks in Dulbecco's modified Eagle's medium/F12 medium (1:1, volume/volume (v/v)) in the presence of fetal bovine serum (10%) and G418 (100 μg/ml). For uptake measurements, cells were released by trypsin treatment and seeded in 24-well culture plates at an initial density of 0.1×10^6 cells/well. The culture medium was replaced with fresh medium on the second day following the initial seeding and uptake measurements were made on the third day. […] After incubation at 37° C. for a desired time, uptake was terminated by the removal of the medium and washing of the cells with ice-cold uptake buffer. The cells were then dissolved in 1% SDS in 0.2 M NaOH and used for measurement of radioactivity. The uptake buffer in most experiments was 25 mM Hepes/Tris (pH 7.5), containing 140 mM NaCl, 5.4 mM KCl, 1.8 mM CaCl2, 0.8 mM MgSO4 and 5 mM glucose.
When the influence of Na^+ on the uptake process was investigated, the concentration of NaCl in the uptake buffer was adjusted, as desired, by isoosmotically replacing NaCl with N-methyl-D-glucamine chloride. To assess the influence of Cl^− on the uptake process, the composition of the uptake medium was modified by replacing KCl and CaCl2 with equimolar concentrations of potassium gluconate and calcium gluconate and the concentration of NaCl was adjusted, as desired, by iso-osmotically replacing NaCl with sodium gluconate. Saturation kinetics were analysed by fitting the data to the Michaelis-Menten equation. The Michaelis-Menten constant, Kt, was calculated by non-linear regression analysis and then confirmed by linear regression. Na^+- and Cl^−-activation kinetics were analyzed by fitting the data to the Hill equation and the Hill coefficients for Na^+ and Cl^− (h; the number of Na^+ and Cl^− ions involved in the activation process) and the K0.5 values (the concentration of Na^+ and Cl^−-needed for half-maximal activation) were determined from the analysis. Again, these constants were first calculated by non-linear regression methods and subsequently confirmed by linear regression methods. Experiments were repeated three times in duplicate and the results are given as means±S.E.M.
Substrate specificity of the deltorphin transport system. […] These peptides consisted of 4-13 amino acids.
Relative affinities of endogenous opioid peptides for the transport system.

[2] = target: Na+- and Cl--coupled transport system for endogenous opioid peptides (human cell lines ARPE-19, Tat-ARPE-19 and SK-N-SH) (human); assay: cell-based or functional assay

Molecule | competition with deltorphin for the uptake process (in words) [1] | [^3H] Deltorphin II uptake [1] [pmol/mg protein/30 min] | [^3H] Deltorphin II uptake (%) of control [1] [%] | [3H]deltorphin II (50 nM) uptake in Tat-ARPE-19 cells, 30 min, NaCl, inhibitor 1 mM (pmol/mg protein/30 min) [2] | [3H]deltorphin II uptake (%) in Tat-ARPE-19 cells, inhibitor 1 mM [2] | IC50 for inhibition of [3H]deltorphin II uptake in Tat-ARPE-19 cells [2] [mM] | further results
NCCC(=O)N[C@@H](Cc1cnc[nH]1)C(=O)O [Carnosine, β-Ala-His] | did not compete | 6.21 ± 0.08 | 80 | – | – | – | –
NCC(=O)O [Glycine] | did not compete | 7.23 ± 0.14 | 93 | – | – | – | –
O=C(O)[C@@H]1CCCN1 [L-Proline] | did not compete | 7.31 ± 0.20 | 94 | – | – | – | –
N[C@@H](Cc1ccc(O)cc1)C(=O)O [L-Tyrosine] | did not compete | 7.52 ± 0.15 | 97 | – | – | – | –
Carnosine (β-Ala-His) (peptide) | – | – | – | 6.21 | 80 % of control | – | –
Dynorphin A (1-6) (Tyr-Gly-Gly-Phe-Leu-Arg) (peptide) | – | – | – | 0.12 | 2 % of control | 4.2 | [3H]deltorphin II (50 nM) uptake in control ARPE-19 cells, 30 min, NaCl, opioid peptide 1 mM (pmol/mg protein/30 min) [2]: 0.06; [3H]deltorphin II uptake (%) in control ARPE-19 cells, opioid peptide 1 mM [2]: 5 % of control; affinity from concentration-dependent inhibition of [3H]deltorphin II (25 nM) uptake in SK-N-SH cells [2]: 3.5 µM
Dynorphin A (1-7) (Tyr-Gly-Gly-Phe-Leu-Arg-Arg) (peptide) | – | – | – | 0.1 | 1 % of control | 7.3 | [3H]deltorphin II (50 nM) uptake in control ARPE-19 cells, 30 min, NaCl, opioid peptide 1 mM (pmol/mg protein/30 min) [2]: 0.05; [3H]deltorphin II uptake (%) in control ARPE-19 cells, opioid peptide 1 mM [2]: 5 % of control; affinity from concentration-dependent inhibition of [3H]deltorphin II (25 nM) uptake in SK-N-SH cells [2]: 4.6 µM
Gly-Gly-Gly (peptide) | – | – | – | 9.68 | 125 % of control | – | –
Gly-Gly-Ile (peptide) | – | – | – | – | – | – | stimulation of deltorphin II uptake in SK-N-SH cells [2]: 6 to 8 fold
Gly-Gly-Phe-Met [[des-Tyr^1] Met-enkephalin] | marked inhibition | 0.74 ± 0.03 | 10 | – | – | – | –
Leu-enkephalin (Tyr-Gly-Gly-Phe-Leu) (peptide) | – | – | – | 0.15 | 2 % of control | 9.5 | affinity from concentration-dependent inhibition of [3H]deltorphin II (25 nM) uptake in SK-N-SH cells [2]: 7.8 µM
Met-enkephalin (Tyr-Gly-Gly-Phe-Met) (peptide) | – | – | – | 0.5 | 6 % of control | 33.2 | [3H]deltorphin II (50 nM) uptake in control ARPE-19 cells, 30 min, NaCl, opioid peptide 1 mM (pmol/mg protein/30 min) [2]: 0.06; [3H]deltorphin II uptake (%) in control ARPE-19 cells, opioid peptide 1 mM [2]: 5 % of control; affinity from concentration-dependent inhibition of [3H]deltorphin II (25 nM) uptake in SK-N-SH cells [2]: 10.7 µM
Met-enkephalinamide (Tyr-Gly-Gly-Phe-Met-NH2) (peptide) | – | – | – | 0.69 | 9 % of control | 13 | –
Tyr-Gly-Gly-Phe (YGGF; printed: Tyr-Gly-Gly-Phe) [β-Lipotropin] | no or little inhibition | 6.26 ± 0.31 | 81 | – | – | – | –
Tyr-Gly-Gly-Phe-Met-NH2 (YGGFM; printed: Tyr-Gly-Gly-Phe-Met-) [Met-enkephalinamide] | marked inhibition | 0.69 ± 0.01 | 9 | – | – | – | –
Tyr-Pro | did not compete | 5.72 ± 0.09 | 74 | – | – | – | –
Tyr-Pro (peptide) | – | – | – | 5.72 | 74 % of control | – | –
Tyr-Pro-Leu-Gly-NH2 (YPLG-NH2) [Tyr-MIF-1] | no or little inhibition; also recorded: not recognized | 9.20 ± 0.15 | 119 | – | – | – | –
YGGFMK [α-Neo-endorphin (1-6)] | marked inhibition | 0.19 ± 0.01 | 3 | – | – | – | –
YPFPGPI [β-Casomorphin] | – | 2.03 ± 0.05 | 26 | – | – | – | –
[Arg6, Gly7, Leu8]Met-enkephalin (Tyr-Gly-Gly-Phe-Met-Arg-Gly-Leu) (peptide) | – | – | – | 0.09 | 1 % of control | 2.5 | [3H]deltorphin II (50 nM) uptake in control ARPE-19 cells, 30 min, NaCl, opioid peptide 1 mM (pmol/mg protein/30 min) [2]: 0.04; [3H]deltorphin II uptake (%) in control ARPE-19 cells, opioid peptide 1 mM [2]: 4 % of control
[Arg6, Phe7]Met-enkephalin (Tyr-Gly-Gly-Phe-Met-Arg-Phe) (peptide) | – | – | – | 0.11 | 1 % of control | 9.1 | [3H]deltorphin II (50 nM) uptake in control ARPE-19 cells, 30 min, NaCl, opioid peptide 1 mM (pmol/mg protein/30 min) [2]: 0.05; [3H]deltorphin II uptake (%) in control ARPE-19 cells, opioid peptide 1 mM [2]: 4 % of control
[des-Tyr1]Met-enkephalin (Gly-Gly-Phe-Met) (peptide) | – | – | – | 0.74 | 10 % of control | 31.9 | –
α-Neo-endorphin (1-6) (Tyr-Gly-Gly-Phe-Met-Lys) (peptide) | – | – | – | 0.19 | 3 % of control | – | –
β-Casomorphin (Tyr-Pro-Phe-Pro-Gly-Pro-Ile) (peptide) | – | – | – | 2.03 | 26 % of control | – | –
β-Lipotropin (Tyr-Gly-Gly-Phe) (peptide) | – | – | – | 6.26 | 81 % of control | – | –
YGGFLRRQF [Dynorphin B (1-9) (Tyr-Gly-Gly-Phe-Leu-Arg-Arg-Gln-Phe)] | – | – | – | 0.08 | 1 % of control | 3.1 | [3H]deltorphin II (50 nM) uptake in control ARPE-19 cells, 30 min, NaCl, opioid peptide 1 mM (pmol/mg protein/30 min) [2]: 0.06; [3H]deltorphin II uptake (%) in control ARPE-19 cells, opioid peptide 1 mM [2]: 5 % of control
YPLG-NH2 [tyrosine melanocyte-stimulating hormone inhibitory factor 1 (Tyr-MIF-1; Tyr-Pro-Leu-Gly-NH2)] | – | – | – | 9.2 | 119 % of control | – | –
